Laboratory results taken from the DeepSol protein solubility set.

experiment: soluble on expression in E. coli; label from the status in PepcDB or PDB records

Row | Sequence | soluble on expression in E. coli
1 | MPFTLGQRWISDTESELGLGTVVAVDARTVTLLFPSTGENRLYARSDSPVTRVMFNPGDTITSHDGWQMQVEEVKEENGLLTYIGTRLDTEESGVALREVFLDSKLVFSKPQDRLFAGQIDRMDRFALRYRARKYSSEQFRMPYSGLRGQRTSLIPHQLNIAHDVGRRHAPRVLLADEVGLGKTIEAGMILHQQLLSGAAERVLIIVPETLQHQWLVEMLRRFNLRFALFDDERYAEAQHDAYNPFDTEQLVICSLDFARRSKQRLEHLCEAEWDLLVVDEAHHLVWSEDAPSREYQAIEQLAEHVPGVLLLTATPEQLGMESHFARLRLLDPNRFHDFAQFVEEQKNYRPVADAVAMLLAGNKLSNDELNMLGEMIGEQDIEPLLQAANSDSEDAQSARQELVSMLMDRHGTSRVLFRNTRNGVKGFPKRELHTIKLPLPTQYQTAIKVSGIMGARKSAEDRARDMLYPERIYQEFEGDNATWWNFDPRVEWLMGYLTSHRSQKVLVICAKAATALQLEQVLREREGILAAVFHEGMSIIERDRAAAWFAEEDTGAQVLLCSEIGSEGRNFQFASHMVMFDLPFNPDLLEQRIGRLDRIGQAHDIQIHVPYLEKTAQSVLVRWYHEGLDAFEHTCPTGRTIYDSVYNDLINYLASPDQTEGFDDLIKSCREQHEALKAQLEQGRDRLLEIHSNGGEKAQALAESIEEQDDDTNLIAFAMNLFDIIGINQDDRGDNMIVLTPSDHMLVPDFPGLSEDGITITFDREVALAREDAQFITWEHPLIRNGLDLILSGDTGSSTISLLKNKALPVGTLLVELIYVVEAQAPKQLQLNRFLPPTPVRMLLDKNGNNLAAQVEFETFNRQLNAVNRHTGSKLVNAVQQDVHAILQLGEAQIEKSARALIDAARNEADEKLSAELSRLEALRAVNPNIRDDELTAIESNRQQVMESLDQAGWRLDALRLIVVTHQ | not soluble
2 | MPGAVDFKERISRQRPHDRETYGHAGNTDLQDIVYQLESDRGRIVNSAAVRRLQQKTQVFPLERNAAVRSRLTHSLEVQQTGRFIVRTLFRQLGPRAAEVGLDGLEGALESLVEMACLMHDVGNPPFGHFGEYAINDWFERNLDALFERRIPPGQGDGLLQQRMLTDLKHFEGNAQAIRLVVKLLRLNLTYTQTAGLLKYVRPAYEPKPDKAAANHYLNKKPGFYLSEEAFVDELRRVLGMRPGTRHPVAYIMEAADDISYCLADIEDSVEKGILDIRQLADLLVKKFAVHHSPDAPIPGDADNMSFQRMVDYSLEKAEREPINKVSEFFIRLRVKMIHPLVQHAAQQFIDNFEAVHAGTLGRALMEDGSLPHAIVQTFKDVAMEWVFCHPEVETLELQGYRIIQGLLDFYAPLLRLPAEEFQALAEGRQAAAPHPQLLVRRLPSQQIKAYLEAMKGVAEDPLQRQWEFYHRCRMLQDFVSGMTDQHAQDEYRALSAL | not soluble
3 | MPGIRGPSEYSQEPPRHPSLKVNAKEPFNAEPPRSALVSSYVTPVDLFYKRNHGPIPIVDHLQSYSVTLTGLIQNPRKLFIKDIRSLPKYNVTATLQCAGNRRTAMSKVRNVRGVGWDVSAIGNAVWGGAKLADVLELVGIPKLTASTNLGARHVEFVSVDRCKEENGGPYKASITLSQATNPEADVLLAYEMNGETLNRDHGFPLRVVVPGVIGARSVKWLDSINVIAEESQGFFMQKDYKMFPPSVNWDNINWSSRRPQMDFPVQSAICSVEDVQMVKPGKVSIKGYAVSGGGRGIERVDISLDGGKNWVEASRTQEPGKQYISEHSSSDKWAWVLFEATIDVSQTTEVIAKAVDSAANVQPENVESVWNLRGVLNTSWHRVLLRLGHSNL | soluble
4 | MPHNPIRVVVGPANYFSHPGSFNHLHDFFTDEQLSRAVWIYGKRAIAAAQTKLPPAFGLPGAKHILFRGHCSESDVQQLAAESGDDRSVVIGVGGGALLDTAKALARRLGLPFVAVPTIAATCAAWTPLSVWYNDAGQALHYEIFDDANFMVLVEPEIILNAPQQYLLAGIGDTLAKWYEAVVLAPQPETLPLTVRLGINNAQAIRDVLLNSSEQALSDQQNQQLTQSFCDVVDAIIAGGGMVGGLGDRFTRVAAAHAVHNGLTVLPQTEKFLHGTKVAYGILVQSALLGQDDVLAQLTGAYQRFHLPTTLAELEVDINNQAEIDKVIAHTLRPVESIHYLPVTLTPDTLRAAFKKVESFKA | soluble
